# T1: FLT3 on Nalm16 cells (human, UniProt P36888 27-993)
# T1 construct: whole, on cells; Also used for FLT3 on primary leukemic cells of patients in the functional rows; also called NALM16 (FLT3+); FLT3 on leukemic cells
# T1 sequence (looked up): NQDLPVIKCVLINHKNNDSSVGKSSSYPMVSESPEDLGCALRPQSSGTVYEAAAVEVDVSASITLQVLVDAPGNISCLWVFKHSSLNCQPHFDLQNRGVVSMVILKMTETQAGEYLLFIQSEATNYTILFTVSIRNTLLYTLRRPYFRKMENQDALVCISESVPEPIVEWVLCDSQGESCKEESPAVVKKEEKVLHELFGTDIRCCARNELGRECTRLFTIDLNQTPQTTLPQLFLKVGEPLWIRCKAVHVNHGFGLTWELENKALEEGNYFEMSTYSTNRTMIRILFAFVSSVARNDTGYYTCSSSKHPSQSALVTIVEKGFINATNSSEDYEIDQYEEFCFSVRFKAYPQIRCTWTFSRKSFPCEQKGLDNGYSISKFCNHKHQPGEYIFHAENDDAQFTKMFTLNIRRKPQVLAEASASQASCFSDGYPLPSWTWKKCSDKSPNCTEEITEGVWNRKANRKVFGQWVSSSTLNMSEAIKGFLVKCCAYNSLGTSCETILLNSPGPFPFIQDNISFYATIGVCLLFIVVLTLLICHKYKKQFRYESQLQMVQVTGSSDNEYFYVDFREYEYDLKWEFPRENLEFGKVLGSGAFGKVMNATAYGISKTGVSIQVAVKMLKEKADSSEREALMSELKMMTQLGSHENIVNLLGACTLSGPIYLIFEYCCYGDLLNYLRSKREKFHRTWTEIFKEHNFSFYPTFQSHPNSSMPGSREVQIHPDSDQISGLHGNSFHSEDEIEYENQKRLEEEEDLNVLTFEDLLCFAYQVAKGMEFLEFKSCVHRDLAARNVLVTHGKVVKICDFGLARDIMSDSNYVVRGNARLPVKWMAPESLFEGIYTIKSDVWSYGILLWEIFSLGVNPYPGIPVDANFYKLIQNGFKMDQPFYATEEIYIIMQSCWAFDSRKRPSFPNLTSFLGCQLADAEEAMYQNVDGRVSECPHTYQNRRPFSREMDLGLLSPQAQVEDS
# B1: V6-V6 (bispecific antibody, human IgG1, kappa)
# heavy: QVQLQQPGAELVKPGASLKLSCKSSGYTFTSYWMHWVRQRPGHGLEWIGEIDPSDSYKDYNQKFKDKATLTVDRSSNTAYMHLSSLTSDDSAVYYCARAITTTPFDFWGQGTTLTVSSASTKGPSVFPLAPSSKSTSGGTAALGCLVKDYFPEPVTVSWNSGALTSGVHTFPAVLQSSGLYSLSSVVTVPSSSLGTQTYICNVNHKPSNTKVDKKVEPKSCDKTHTCPPCPAPPVAGPSVFLFPPKPKDTLMISRTPEVTCVVVGVSHEDPEVKFNWYVDGVEVHNAKTKPREEQYNSTYRVVSVLTVLHQDWLNGKEYKCKVSNKQLPSPIEKTISKAKGQPREPQVYTLPPSRDELTKNQVSLTCLVKGFYPSDIAVEWESNGQPENNYKTTPPVLDSDGSFFLYSKLTVDKSRWQQGNVFSCSVMHEALHNHYTQKSLSLSPGKSGDIQMTQSPSSLSASVGDRVTITCRASQDIRNYLNWYQQKPGKAPKLLIYYTSRLESGVPSRFSGSGSGTDYTLTISSLQPEDFATYYCQQGNTLPWTFGQGTKVEIKGGGGSGGGGSGGGGSEVQLVESGGGLVQPGGSLRLSCAASGYSFTGYTMNWVRQAPGKGLEWVALINPYKGVSTYNQKFKDRFTISVDKSKNTAYLQMNSLRAEDTAVYYCARSGYYGDSDWYFDVWGQGTLVTVSS
# light: DIVLTQSPATLSVTPGDSVSLSCRASQSISNNLHWYQQKSHESPRLLIKYASQSISGIPSRFSGSGSGTDFTLSINSVETEDFGVYFCQQSNTWPYTFGGGTKLEIKRTVAAPSVFIFPPSDEQLKSGTASVVCLLNNFYPREAKVQWKVDNALQSGNSQESVTEQDSKDSTYSLSSTLTLSKADYEKHKVYACEVTHQGLSSPVTKSFNRGEC
# notes: also called CC-2; FLT3 (4G8) x CD3 (humanized hUCHT1) bispecific IgGsc
# Molecular target: T1, FLT3 on Nalm16 cells
# Assay: flow cytometry on NALM16 (FLT3+) cells, PE-conjugated anti human Fcγ secondary antibody
# Procedure: In addition, antibody binding affinity was also tested using binding of the antibody to its target(s) as expressed on cells. Analyzed is the binding of CC-2 variants to Nalm16 cells expressing FLT3 (FIG. 4) or Jurkat cells expressing CD3 (FIG. 6). Variants V1 to V9 (with V6 being V6-V6) were produced after transient transfection of CHO cells using the insert sequences listed above. The antibodies were purified by protein A affinity-and size exclusion-chromatography. […] To measure antibody binding to FLT3 and CD3 NALM16 (FLT3+) and Jurkat (CD3+) cells were incubated with the respective variants for 30 min, washed, stained with a goat anti human Fcγ-specific and PE-conjugated secondary antibody (Jackson Immuno Research), washed again and analyzed by flow cytometry (FACSCalibur, BD Biosciences).
binder,measurement,value
B1,EC50,~1 nM

# — US20250197510A1 (published 2025)
